Experimental data: US20150299259A1 (FORSCHUNGSZENTRUM JUELICH, published 2015)
Where no end group is shown, it is not given here. [ ]: non-standard residue; d: D form.

B1: peptide having the sequence TTSLQMRLYYPP (peptide)
peptide: TTSLQMRLYYPP
modifications: not fully specified
notes: L-peptide selected by regular phage display against L-PHF-6; also called TL28

Tests used:
[1] = target: full-length tau protein (441 amino acids) (UniProt P10636-8 1-441, limits assumed); experiment: cell-based or functional assay
[2] = target: T1, PHF-6 (6-mer tau fragment 306VQIVYK311); experiment: regular phage display and single-phage ELISA on L-PHF-6 fibrils
T1 construct: Used as fibrillary (aggregated) material; The mirror image selections used its synthetic D-enantiomer (D-PHF-6); also called L-PHF-6; aggregated tau partial peptide
T1 peptide: VQIVYK
Procedure: A phage display kit made by Biolabs was used for the following selections. At the same time, a regular phage display was carried out for the selection of L-peptides. In this regard, obtaining binding motifs after database searches allows conclusions to be drawn concerning previously unknown binding partners in vivo. Moreover, binding partners can later be tested as D-peptides or retro-inverso peptides. After selection, enriched phages were isolated and single-phage ELISA assays were carried out. […] The D-peptides Apt and Knt stem from selections against […]. Against L-PHF-6, a peptide having the sequence […] was selected, which we also analyzed in D-enantiomeric form (TD28) and as a retro-inverso peptide (TD28ri).

full-length tau protein (441 amino acids), sequence (P10636 other isoform, or with tags, fused parts or gaps limits assumed): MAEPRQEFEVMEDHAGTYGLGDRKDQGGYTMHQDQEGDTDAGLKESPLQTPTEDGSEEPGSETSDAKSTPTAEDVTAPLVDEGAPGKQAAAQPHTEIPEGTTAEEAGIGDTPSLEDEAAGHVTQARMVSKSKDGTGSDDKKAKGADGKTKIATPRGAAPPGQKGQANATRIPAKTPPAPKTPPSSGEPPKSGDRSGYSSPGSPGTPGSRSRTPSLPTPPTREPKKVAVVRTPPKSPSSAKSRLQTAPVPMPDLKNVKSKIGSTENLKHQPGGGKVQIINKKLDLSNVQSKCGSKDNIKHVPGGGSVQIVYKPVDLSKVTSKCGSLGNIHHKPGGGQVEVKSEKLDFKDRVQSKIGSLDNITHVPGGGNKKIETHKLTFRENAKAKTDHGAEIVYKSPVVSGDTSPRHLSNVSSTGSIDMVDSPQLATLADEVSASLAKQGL

| Binder | DLS particle size Day 1 (Tau + AA + peptide, 1:10) [1] [fold] | DLS particle size Day 8 (Tau + AA + peptide, 1:10) [1] [fold] | binding result [2] |
| --- | --- | --- | --- |
| [dT][dL][dK][dI][dV][dW] [D-enantiomeric peptide tlkivw described by Sievers et al.] | 6 | 6 |  |
| B1 | 5 | 4 | binds |
